# From patent publication US20190119357A1, “MESSENGER RIBONUCLEIC ACIDS FOR THE PRODUCTION OF INTRACELLULAR BINDING POLYPEPTIDES AND METHODS OF USE THEREOF” (ModernaTX, Inc., priority 2015, published 2019)
# Entries after “also recorded” stand apart in the source; their conditions may differ.
# What was measured:
# HeLa cells = experiment: PARP-1 cleavage by SDS-PAGE and Western blotting after transfection of mRNAs encoding SQT-BH3 constructs; format: cell-based; details: from anti-FLAG and anti-GFP Western blotting
# Text: The cleavage of PARP-1 was detected by the appearance of a faster-migrating band and concomitant loss of the full-length band by SDS-PAGE and Western blotting. Western blotting with anti-actin antibodies served as a loading control.
# BCL-2 = biological target: T1, BCL-2 (Homo sapiens, UniProt P10415); experiment: Co-immunoprecipitation after mRNA transfection; format: binding; details: within two hours after mRNA transfection
# T1 construct: endogenous in cells; host or cells: cells transfected with SQT-BH3 mRNA (HeLa by context)
# Hep3B cells [1] = experiment: Sorafenib combination, YOYO-3 apoptosis on IncuCyte ZOOM; format: cell-based
# Procedure: To determine the effect of SQT-BH3 constructs in combination with the protein tyrosine kinase inhibitor Sorafenib on liver cells, 20,000 Hep3B cells/well in a 96 well plate were treated with increasing amounts of sorafenib tosylate (Selleck Chemicals) and transfected with LNPs containing SQT-PUMA-BH3 (68 pM) or SQT-Bad-BH3 (550pM).
# Hep3B SC tumors = experiment: Combination with sorafenib in SCID mice bearing Hep3B SC tumors; format: in vivo; details: mmRNA with miR122 binding site, 1.5 mg/kg IV weekly alone, three weeks, end of study
# Procedure: SCID mice bearing Hep3B SC tumors (tumor size range 140-227 mm^3; average=183 mm^3) were dosed over a three week period with a combination of 0.5% methyl cellulose daily and SQT IV at 1.5 mg/kg alone weekly (Days 1, 8 and 15; Group 1), Sorafenib (in 0.5% methyl cellulose) at 10 mg/kg orally daily alone (Group 2), mmRNA encoding SQT-PUMA-BH3 (comprising a miR122 binding site) weekly at 1.5 mg/kg IV alone (Group 3) or a combination of mmRNA encoding SQT-PUMA-BH3 (with miR122 binding site) at 1.5 mg/kg IV weekly with sorafenib at 10 mg/kg orally daily (Group 4; 10 animals per group).
# [2] = tested on: Orthotopic Hep3B xenografts; experiment: Efficacy in SCID mice bearing orthotopic Hep3B xenografts; format: in vivo; details: orthotopic Hep3B study, over the course of the study
# Procedure: LNPs comprising the cationic lipid MC3 were tested using the optimal percentage of PEG-lipid and optimal PEG length (1.5% DSPE, C18, as described in Example 10), for in vivo targeted delivery of SQT-PUMA-BH3 in a model of Orthotopic Hep3B xenografts.
# SCID mice were anesthetized, a transverse incision was made below the xiphoid and Hep3B cells (2×10^6) were injected into the upper left lobe of the liver, followed by surgical closure of the abdomen and skin. Tumor growth was measured by whole body bioluminescent imaging (BLI) in anaesthetized animals following SC injection of 150 mg/kg D-Luciferin, in an imaging chamber (Spectrum CT). Bioluminescence was measured as total flux (photons/second) of the entire animals. On Day 8 following tumor implantation when tumor BLI reached an average of 3.17×10^8 photons/sec (range 12.37×10^7−1.38×10^9 photons/sec), animals were randomized into study groups and treated weekly over a three week period (Days 9, 16 and 23) with PBS IV (Group 1), SQT 3 mg/kg IV (Group 2), mmRNA encoding SQT-PUMA-BH3 (comprising a miR122 binding site) weekly at 0.75 mg/kg (Group 3), 1.5 mg/kg (Group 4) or 3 mg/kg IV (Group 5; 12 animals per group). One week following the final dose, animals were euthanized and tumors excised and weighed.
# systemic TF1a xenografts = experiment: Systemic TF1a xenografts in SCID mice (AML model); format: in vivo
# Procedure: (§1) LNPs comprising the cationic lipid MC3 were tested using the optimal percentage of PEG-lipid and optimal PEG length (1.5% DSPE, C18, as described in Example 8), for in vivo targeted delivery of SQT-PUMA-BH3 in two different in vivo models of acute myeloid leukemia (AML). One model used systemic TF1a xenografts in SCID mice. The other model used systemic HEL xenografts in SCID mice. Each of these models uses a human erythroleukemia cell line. The HEL erythroleukia cell line is described in, for example, Martin, P. and Papayannopoulou, T. (1982) Science 216:1233-1235. The TF1 erythroleukmia cell line (from which TF1a is derived) is described in, for example, Kitamura, T. et al. (1989) J. Cell. Physiol. 140:323-334. Unless otherwise noted, mRNAs were fully modified with N1-methlypseudouridine to avoid stimulating an innate immune response to said mRNAs when administered in vivo.
# In a first set of experiments, TF1a cells stably expressing luciferase (TF1α-luc cells) were implanted systemically in SCID mice. Tumor growth was measured by whole body bioluminescent imaging (BLI) in anaesthetized animals following SC injection of 150 mg/kg D-Luciferin, in an imaging chamber (Spectrum CT). Animals showing an increasing tumor burden at day 12 post-cell implantation were recruited for treatment. Animals were randomized into four study groups, as follows: PBS IV (Group 1), cytarabine at 2 mg/kg three times per week (Group 2), LNPs containing mRNA encoding Green Fluorescent Protein (GFP) at 3 mg/kg one time per week (Group 3) and LNPs containing mRNA encoding SQT-PUMA-BH3 (comprising a miR122 binding site) at 3 mg/kg one time per week. Mice were dosed intravenously for four weeks.
# systemic HEL xenografts = experiment: Systemic HEL xenografts in SCID mice (AML model); format: in vivo
# Procedure: as §1
# In a second set of experiments, HEL cells stably expressing luciferase (HEL-luc cells) were implanted systemically in SCID mice. Tumor growth was measured by whole body bioluminescent imaging (BLI) in anaesthetized animals following SC injection of 150 mg/kg D-Luciferin, in an imaging chamber (Spectrum CT). […] Mice were dosed intravenously at days 28 and 36 and tumor burden was assessed by BLI on days 33, 36, 40 and 43.
# Hep3B cells [3] = experiment: SQT-BH3 in combination with siMCL1 or sorafenib, YOYO-3; format: cell-based; details: 10 uM sorafenib tosylate, 24 hours after treatment
# primary hepatocytes = details: 10uM sorafenib tosylate, 24 hours after treatment
# Procedure: Controls were an empty SQT construct (“SQT-dummy”), a non-targeting siRNA and PBS. For treatment of Hep3B cells, 20,000 Hep3B cells/well per plated in 96-well plates. At Day 1, some wells were transfected with siMCL1 (Dharmacon, ON-TARGETplus Human MCL1 (4170) siRNA-SMARTpool, # L-004501-00-0005) or non-targeting siRNA (ON-TARGETplus Non-targeting Control Pool, # D-001810-10-05). […] 24 hours after treatment, YOYO®-3 iodide (Life Technologies) viability dye was added to each well and cell death was measured on an IncuCyte ZOOM® using YOYO-3 fluorescence as a readout (=“Apoptosis”). For treatment of primary hepatocytes, 18,000 mouse hepatocytes (Gibco) were seeded in each well of a 96-well plate. At Day 1, some wells were transfected with siMCL1 (Dharmacon, SMARTpool: ON-TARGETplus Mc11 siRNA, # L-062229-00-0005) or non-targeting siRNA (ON-TARGETplus Non-targeting Control Pool, # D-001810-10-05). […] 24 hours after treatment, Caspase 3/7 reagent (EssenBio) apoptosis dye was added to each well and cell death was measured on an IncuCyte ZOOM® using the caspase 3/7 reagent fluorescence as a readout (=“Apoptosis”).
# [4] = TF1a-SCID mice, 3 mg/kg one time per week
# T1 sequence (P10415 whole entry): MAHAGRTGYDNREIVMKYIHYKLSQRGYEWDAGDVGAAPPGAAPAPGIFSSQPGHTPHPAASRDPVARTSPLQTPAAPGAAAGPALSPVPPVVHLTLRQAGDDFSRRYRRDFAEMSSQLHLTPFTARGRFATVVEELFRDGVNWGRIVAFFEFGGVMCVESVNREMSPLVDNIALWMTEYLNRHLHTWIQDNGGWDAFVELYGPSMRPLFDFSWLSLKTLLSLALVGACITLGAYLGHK
molecule,measurement,setting,value
"SQT-PUMA-BH3: mRNA (SEQ ID NO: 49, FLAG) encoding SQT scaffold with PUMA BH3 domain in N-terminus, fully modified with 1-methyl-pseudouridine (nucleic acid, FLAG tag, 1-methyl-pseudouridine; Synthetic SQT-PUMA-BH3 mRNA sequence with FLAG epitope tag) ATGATCCCAAGAGAAGAACAGTGGGCACGCGAAATTGGAGCTCAACTCAGACGGATGGCCGACGACCTGAACGCCCAGTACGAGCGGCGGGGACTCTCAGAAGCGAAGCCTGCCACCCCCGAAATCCAGGAAATCGTCGACAAGGTCAAGCCGCAGCTTGAGGAAAAGACCAACGAGACTTACGGAAAACTGGAGGCCGTGCAGTATAAGACCCAAGTGTTGGCCTCCACCAACTACTACATTAAGGTCCGCGCCGGCGATAACAAGTACATGCACCTGAAGGTGTTCAATGGTCCTCCGGGACAGAACGCGGACAGGGTGCTGACTGGCTACCAAGTGGACAAGAACAAGGACGACGAGCTGACGGGCTTCGACTACAAGGATGATGATGACAAA",cell death of transfected cells,HeLa cells,underwent cell death
same,interaction with BCL-2 by co-immunoprecipitation,BCL-2,to a lesser extent
same,nature of combination effect with sorafenib,Hep3B cells [1]; SQT-PUMA-BH3 68 pM or SQT-Bad-BH3 550pM,synergistic effect
same,"apoptosis (YOYO-3), combination with sorafenib vs sorafenib alone","Hep3B cells [1]; SQT-PUMA-BH3 68 pM or SQT-Bad-BH3 550pM in LNPs, increasing sorafenib tosylate",increased apoptosis of the liver cells as compared to treatment with sorafenib alone
same,tumor growth inhibition (TGI),Hep3B SC tumors,28%
same,percent body weight change / tolerability,[2],did not significantly impact body weight
same,body weight,systemic TF1a xenografts; [4],did not cause significant body weight changes
same,tolerability / treatment-related mortality,systemic TF1a xenografts; [4],"well tolerated, resulting in no treatment-related mortality"
same,systemic tumor growth (BLI),"systemic TF1a xenografts; TF1a-SCID, mRNA LNPs 3 mg/kg one time per week, cytarabine 2 mg/kg three times per week, IV, four weeks",led to greater tumor growth inhibition than treatment with cytarabine
same,"tumor growth inhibition (TGI), BLI","systemic HEL xenografts; 1.5 mg/kg IV at days 28 and 36, by days 40 and 43",exhibited greater tumor growth inhibition (TGI) as compared to the mice treated with the PBS or GFP controls
same,"tumor growth inhibition (TGI), BLI","systemic HEL xenografts; 3 mg/kg IV at days 28 and 36, at day 33",already exhibited significantly greater tumor growth inhibition than the mice treated with the PBS or GFP controls
same,apoptosis (YOYO-3) in combination with either siMCL1 or sorafenib,Hep3B cells [3],led to a marked increase in apoptosis as compared to treatment with the SQT-BH3 construct in combination with non-targeting siRNA or PBS; also recorded: synergistic pro-apoptotic effect
same,"apoptosis (caspase 3/7) in combination with siMCL1, sorafenib or controls",primary hepatocytes,did not lead to increased apoptosis as compared to treatment with the control SQT-dummy construct
